Data reported in patent publication US20190106460A1 (published 2019).
“And” between values parts separate entries of the source, which are not always exact repeats. Identical values can stand only once. Like-named read-outs stand apart in the source and are kept apart here. Starred links: 1 amine or outer side, 2 acyl side, 3 side chain; linkers in the order of their positions; H or OH if unused. Non-standard residues stand in square brackets, D forms with d. *: point of attachment. Tyr(Me) = O-methyl-L-tyrosine, COc1ccc(C[C@H](N[*:1])C(=O)[*:2])cc1; Phe(4-NO2) = N[C@@H](Cc1ccc([N+](=O)[O-])cc1)C(=O)O; Benzenesulfonyl(4-OMe) = COc1ccc(S(=O)(=O)*)cc1; 2Naphthylsulfonyl = O=S(=O)(c1ccc2ccccc2c1)*; Y(Me) = COc1ccc(C[C@H](N[*:1])C(=O)[*:2])cc1; 3,4‑(MeO)2‑PhSO2 = COc1ccc(S(=O)(=O)*)cc1OC; 4‑(BuO)‑PhSO2 = CCCCOc1ccc(S(=O)(=O)*)cc1; E(OMe) = COC(=O)CC[C@H](N[*:1])C(=O)[*:2]; Phe(4-Br) = N[C@@H](Cc1ccc(Br)cc1)C(=O)O; Phe(3-F) = N[C@@H](Cc1cccc(F)c1)C(=O)O; Phe(4-F) = N[C@@H](Cc1ccc(F)cc1)C(=O)O; 1Nal = N[C@@H](Cc1cccc2ccccc12)C(=O)O; Glutaryl = O=C(CCCC(=O)[*:2])[*:1]; Suc = O=C(CCC(=O)[*:2])[*:1]; Tos = Cc1ccc(S(=O)(=O)*)cc1; Ethoxycarbonyl = CCOC(=O)*; βE = a beta form of Glu

Columns and labels:
[1] = target: T1, βTrCP (tag cleaved and complexed with Skp1) (UniProt Q9Y297 175-605; P63208 1-163); assay: FP competition vs fluorescein-IκB peptide
T1 construct: Protein of the FP assay (0.035 µM); also called Beta Transducin repeat-containing protein; βTrCP/Skp1

Skp2 = Skp2 (UniProt Q13309 1-424, limits assumed); assay: cell-based or functional assay
Fbw7 = Fbw7 (UniProt Q969H0 263-707, limits assumed); assay: cell-based or functional assay
[2] = target: T1, βTrCP (tag cleaved and complexed with …); assay: FP competition vs fluorescein-IκB peptide; remark: listed apart in the source
[3] = target: T2, HisβTrCP/Skp1 and HisβTrCP/GSTSkp1 (immobilised on NTA Biacore chip) (UniProt Q9Y297 175-605; P63208 1-163); assay: SPR, Biacore T200, βTrCP/Skp1 immobilised
T2 construct: SPR: KD values from both surfaces (with or without the GST moiety) were averaged to give the apparent KD; also called βTrCP surfaces
From the text: As βTrCP was His tagged, an NTA sensor chip was used. This sensor chip has a dextran surface matrix with immobilized nitrilotriacetic acid (NTA) which provides a means of capturing polyHis-tagged proteins through Nickel chelation. It was hoped that addition of Ni⁺ would orient the protein in a specific (and hopefully active) manner as it is covalently immobilised via amine coupling. Addition of EDC:NHS (N-ethyl-N′-(3-[…])-carbodiimide:N-hydroxysuccinimide) converts carboxyl groups on the dextran sensor chip surface to succinamide esters which readily form covalent bonds with primary amines. Each chip contains four flow cells (each a separate surface) which means that compounds/peptides can be passed over different forms of βTrCP and a reference surface simultaneously. If binding to βTrCP is occurring, responses should be the same (accounting for differences in density of surface etc) on each surface.
Small molecule/peptide samples to be assayed for binding to βTrCP surfaces, were provided as 10 mM stocks in 100% DMSO. All samples were tested in running buffer composed of 10 mM HEPES pH 7.4, 150 mM NaCl, 50 μM EDTA, 0.005% p20, and 1% DMSO. Serial dilutions were made using running buffer. Samples were tested over varying concentrations up to a maximum of 100 μM. Two methods of measuring the SPR response were employed: single cycle kinetics which measures the response across different concentrations of sample within a single cycle (no regeneration of surface) and a method that measures the response at a given concentration in each cycle and includes a regeneration wash after each sample injection. The regeneration solution used was the same as running buffer, but included 500 mM NaCl. Data was fitted using Biacore T200 evaluation software. KD values calculated from binding curves from both surfaces (with or without the GST moiety) were averaged to produce apparent KD's for each sample tested.

[4] = target: T1, βTrCP (tag cleaved and complexed with …); assay: FP competition vs fluorescein-IκB peptide; remark: listed apart in the source

Chain of Fbw7 (Q969H0 263-707 limits assumed): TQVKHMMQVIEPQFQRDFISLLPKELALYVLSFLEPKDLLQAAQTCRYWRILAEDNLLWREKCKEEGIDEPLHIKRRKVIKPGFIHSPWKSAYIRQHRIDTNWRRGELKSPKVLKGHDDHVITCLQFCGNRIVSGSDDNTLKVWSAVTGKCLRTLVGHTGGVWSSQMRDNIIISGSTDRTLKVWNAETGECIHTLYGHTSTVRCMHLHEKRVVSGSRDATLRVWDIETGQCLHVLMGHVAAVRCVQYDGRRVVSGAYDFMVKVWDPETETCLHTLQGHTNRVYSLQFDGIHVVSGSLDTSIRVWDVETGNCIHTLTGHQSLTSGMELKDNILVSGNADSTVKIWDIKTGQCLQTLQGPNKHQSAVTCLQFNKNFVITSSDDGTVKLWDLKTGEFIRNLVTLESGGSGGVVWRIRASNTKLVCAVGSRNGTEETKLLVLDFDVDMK
Chain of Skp2 (Q13309 whole entry): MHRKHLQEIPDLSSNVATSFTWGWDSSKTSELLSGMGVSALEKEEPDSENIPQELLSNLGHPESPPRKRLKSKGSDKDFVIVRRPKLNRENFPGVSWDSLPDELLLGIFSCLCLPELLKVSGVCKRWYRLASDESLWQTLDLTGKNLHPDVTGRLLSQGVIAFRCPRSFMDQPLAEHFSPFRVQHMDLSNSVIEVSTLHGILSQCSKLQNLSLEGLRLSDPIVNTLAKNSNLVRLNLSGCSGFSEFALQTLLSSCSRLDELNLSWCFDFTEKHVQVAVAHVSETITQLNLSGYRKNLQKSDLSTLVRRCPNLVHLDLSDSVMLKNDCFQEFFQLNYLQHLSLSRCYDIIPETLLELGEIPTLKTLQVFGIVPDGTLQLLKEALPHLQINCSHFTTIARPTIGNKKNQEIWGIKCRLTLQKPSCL
T2 sequence (Q9Y297 175-605, chain 1 of 2): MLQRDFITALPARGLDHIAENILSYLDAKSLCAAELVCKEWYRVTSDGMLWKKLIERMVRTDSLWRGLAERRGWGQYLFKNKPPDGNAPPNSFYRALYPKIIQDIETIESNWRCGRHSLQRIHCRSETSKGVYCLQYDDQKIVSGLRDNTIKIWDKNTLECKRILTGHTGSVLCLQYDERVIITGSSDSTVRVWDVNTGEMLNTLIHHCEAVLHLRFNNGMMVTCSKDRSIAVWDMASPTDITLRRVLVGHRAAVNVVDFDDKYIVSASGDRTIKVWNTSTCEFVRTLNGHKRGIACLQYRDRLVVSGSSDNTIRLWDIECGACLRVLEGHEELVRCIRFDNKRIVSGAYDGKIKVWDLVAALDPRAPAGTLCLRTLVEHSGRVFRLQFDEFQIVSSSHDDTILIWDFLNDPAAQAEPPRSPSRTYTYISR
T2 sequence (P63208 whole entry, chain 2 of 2): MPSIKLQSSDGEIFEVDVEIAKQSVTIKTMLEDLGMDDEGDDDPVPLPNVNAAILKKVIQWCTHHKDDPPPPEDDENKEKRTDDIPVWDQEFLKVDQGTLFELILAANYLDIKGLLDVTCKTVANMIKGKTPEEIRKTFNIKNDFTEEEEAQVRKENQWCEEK
T1 sequence (Q9Y297 175-605, chain 1 of 2): as the sequence (Q9Y297 175-605, chain 1 of 2) above
T1 sequence (P63208 whole entry, chain 2 of 2): as the sequence (P63208 whole entry, chain 2 of 2) above

Binder | IC50 [1] | % Inhibition Skp2 @ 10 µM (Skp2) | % Inhibition Skp2 @ (100 µM) (Skp2) | % Inhibition Fbw7 @ 10 µM (Fbw7) | % Inhibition Fbw7 @ (100 µM) (Fbw7) | IC50 [2] | Kd [3] | IC50 [4]
{4‑(BuO)‑PhSO2}-[dD]EG[Phe(3-F)]WE-NH2 (also called UBP030) [4-(BuO)-PhSO2-dEGF(3F)WE-NH2] | 56 nM | 0% | 13% | 7% | 12% | 56 nM | 767 nM | –
Suc-EG[Phe(4-Br)]F-NH2 (SMILES NC(=O)[C@H](Cc1ccccc1)NC(=O)[C@H](Cc1ccc(Br)cc1)NC(=O)CNC(=O)[C@H](CCC(=O)O)NC(=O)CCC(=O)O) [Suc-EG-F(4Br)-F-NH2] | – | – | – | – | – | – | – | 38000 nM and 39000 nM
Suc-EGFF-NH2 (SMILES NC(=O)[C@H](Cc1ccccc1)NC(=O)[C@H](Cc1ccccc1)NC(=O)CNC(=O)[C@H](CCC(=O)O)NC(=O)CCC(=O)O) [Suc-EGFF-NH2] | – | – | – | – | – | – | – | 46000 nM
Suc-EG[Phe(3-F)][Phe(3-F)]-NH2 (SMILES NC(=O)[C@H](Cc1cccc(F)c1)NC(=O)[C@H](Cc1cccc(F)c1)NC(=O)CNC(=O)[C@H](CCC(=O)O)NC(=O)CCC(=O)O) [Suc-EG-F(3F)-F(3F)-NH2] | – | – | – | – | – | – | – | 44000 nM
Suc-EGY[Phe(3-F)]-NH2 (SMILES NC(=O)[C@H](Cc1cccc(F)c1)NC(=O)[C@H](Cc1ccc(O)cc1)NC(=O)CNC(=O)[C@H](CCC(=O)O)NC(=O)CCC(=O)O) [Suc-EGY-F(3F)-NH2] | – | – | – | – | – | – | – | 91000 nM
Suc-EGYF-NH2 [Suc-EGYF-NH2] | – | – | – | – | – | – | – | 31000 nM
Suc-QGYF-NH2 (SMILES NC(=O)CC[C@H](NC(=O)CCC(=O)O)C(=O)NCC(=O)N[C@@H](Cc1ccc(O)cc1)C(=O)N[C@@H](Cc1ccccc1)C(N)=O) [Suc-QGYF-NH2] | – | – | – | – | – | – | – | 49000 nM
Suc-EGY[Phe(4-F)]-NH2 (SMILES NC(=O)[C@H](Cc1ccc(F)cc1)NC(=O)[C@H](Cc1ccc(O)cc1)NC(=O)CNC(=O)[C@H](CCC(=O)O)NC(=O)CCC(=O)O) [Suc-EGY-F(4F)-NH2] | – | – | – | – | – | – | – | 71000 nM
Suc-EGY[Phe(4-NO2)]-NH2 (SMILES NC(=O)[C@H](Cc1ccc([N+](=O)[O-])cc1)NC(=O)[C@H](Cc1ccc(O)cc1)NC(=O)CNC(=O)[C@H](CCC(=O)O)NC(=O)CCC(=O)O) [Suc-EGY-F(4NO2)-NH2] | – | – | – | – | – | – | – | 91000 nM
Suc-EG[1Nal][Phe(4-NO2)]E-NH2 [Suc-EG-1Nal-F(4NO2)-E-NH2] | – | – | – | – | – | – | – | 68000 nM
Suc-EG[1Nal][Tyr(Me)]E-NH2 [Suc-EG-1Nal-Y(Me)-E-NH2] | – | – | – | – | – | – | – | 5400 nM
2Naphthylsulfonyl-[dD]EG[Phe(3-F)]WE-NH2 (SMILES NC(=O)[C@H](CCC(=O)O)NC(=O)[C@H](Cc1c[nH]c2ccccc12)NC(=O)[C@H](Cc1cccc(F)c1)NC(=O)CNC(=O)[C@H](CCC(=O)O)NC(=O)[C@@H](CC(=O)O)NS(=O)(=O)c1ccc2ccccc2c1, also called UBP031) [2-NaphthylSO2-dEGF(3F)WE-NH2] | 44 nM | 0% | 17% | 10% | 11% | 44 nM | 262 nM | –
Tos-[dD]EG[Phe(3-F)]WD-NH2 (SMILES Cc1ccc(S(=O)(=O)N[C@H](CC(=O)O)C(=O)N[C@@H](CCC(=O)O)C(=O)NCC(=O)N[C@@H](Cc2cccc(F)c2)C(=O)N[C@@H](Cc2c[nH]c3ccccc23)C(=O)N[C@@H](CC(=O)O)C(N)=O)cc1, also called UBP027) [Ts-dEGF(3F)WD-NH2] | 34 nM | 4% | 6% | 3% | 8% | 34 nM | 680 nM | –
Tos-[dD]DG[Phe(3-F)]WD-NH2 (SMILES Cc1ccc(S(=O)(=O)N[C@H](CC(=O)O)C(=O)N[C@@H](CC(=O)O)C(=O)NCC(=O)N[C@@H](Cc2cccc(F)c2)C(=O)N[C@@H](Cc2c[nH]c3ccccc23)C(=O)N[C@@H](CC(=O)O)C(N)=O)cc1, also called UBP028) [Ts-dDGF(3F)WD-NH2] | 81 nM | 0% | 14% | 4% | 10% | 81 nM | 637 nM | –
Tos-[dD]DG[Phe(3-F)]WE-NH2 (SMILES Cc1ccc(S(=O)(=O)N[C@H](CC(=O)O)C(=O)N[C@@H](CC(=O)O)C(=O)NCC(=O)N[C@@H](Cc2cccc(F)c2)C(=O)N[C@@H](Cc2c[nH]c3ccccc23)C(=O)N[C@@H](CCC(=O)O)C(N)=O)cc1, also called UBP025) [Ts-dDGF(3F)WE-NH2] | 25 nM | 0% | 22% | 1% | 8% | 25 nM | 292 nM | –
{3,4‑(MeO)2‑PhSO2}-[dD]EG[Phe(3-F)]WE-NH2 (SMILES COc1ccc(S(=O)(=O)N[C@H](CC(=O)O)C(=O)N[C@@H](CCC(=O)O)C(=O)NCC(=O)N[C@@H](Cc2cccc(F)c2)C(=O)N[C@@H](Cc2c[nH]c3ccccc23)C(=O)N[C@@H](CCC(=O)O)C(N)=O)cc1OC, also called UBP029) [3,4-(MeO)2-PhSO2-dEGF(3F)WE-NH2] | 42 nM | 19% | 19% | 2% | 0% | 42 nM | 603 nM | –
Glutaryl-EGFFE-NH2 [Ga-EGFFE-NH2] | – | – | – | – | – | – | – | 65000 nM
Suc-EGF[Y(Me)][E(OMe)]-NH2 (SMILES COC(=O)CC[C@H](NC(=O)[C@H](Cc1ccc(OC)cc1)NC(=O)[C@H](Cc1ccccc1)NC(=O)CNC(=O)[C@H](CCC(=O)O)NC(=O)CCC(=O)O)C(N)=O) [Suc-EGF-Y(Me)-E(OMe)-NH2] | – | – | – | – | – | – | – | 71000 nM
Suc-EG[Phe(4-Br)][Phe(3-F)]-NH2 (SMILES NC(=O)[C@H](Cc1cccc(F)c1)NC(=O)[C@H](Cc1ccc(Br)cc1)NC(=O)CNC(=O)[C@H](CCC(=O)O)NC(=O)CCC(=O)O) [Suc-EG-F(4Br)-F(3F)-NH2] | – | – | – | – | – | – | – | 81000 nM
Suc-[βE]GYFE-NH2 (not fully specified; printed as Suc-βE-GYFE-NH2) [Suc-βE-GYFE-NH2] | – | – | – | – | – | – | – | 30000 nM
Ethoxycarbonyl-[dD]EG[Phe(3-F)]WE-NH2 (SMILES CCOC(=O)N[C@H](CC(=O)O)C(=O)N[C@@H](CCC(=O)O)C(=O)NCC(=O)N[C@@H](Cc1cccc(F)c1)C(=O)N[C@@H](Cc1c[nH]c2ccccc12)C(=O)N[C@@H](CCC(=O)O)C(N)=O, also called UBP023) [EtO(CO)-dEGF(3F)WE-NH2] | 45 nM | 4% | 4% | 0% | 12% | 45 nM | 34 nM | –
{Benzenesulfonyl(4-OMe)}-DEG[Phe(3-F)]WE-NH2 (SMILES COc1ccc(S(=O)(=O)N[C@@H](CC(=O)O)C(=O)N[C@@H](CCC(=O)O)C(=O)NCC(=O)N[C@@H](Cc2cccc(F)c2)C(=O)N[C@@H](Cc2c[nH]c3ccccc23)C(=O)N[C@@H](CCC(=O)O)C(N)=O)cc1, also called UBP026) [4-(MeO)-PhSO2-DEGF(3F)WE-NH2] | 27 nM | 15% | 3% | 0% | 8% | 27 nM | 495 nM | –
Suc-EG[Phe(4-NO2)][Phe(4-NO2)]-NH2 (SMILES NC(=O)[C@H](Cc1ccc([N+](=O)[O-])cc1)NC(=O)[C@H](Cc1ccc([N+](=O)[O-])cc1)NC(=O)CNC(=O)[C@H](CCC(=O)O)NC(=O)CCC(=O)O) [Suc-EG-F(4NO2)-F(4NO2)-NH2] | – | – | – | – | – | – | – | 78000 nM
